Patent EP4674868A1
Like-named read-outs stand apart in the source and are kept apart here.

How the values were obtained:
[1] = target: human CD40 on the surface of HEK293 cells (HEK293-HuCD40) (human) (UniProt P25942); test: cell-based or functional assay
[2] = target: human 4-1BB on the surface of HEK293 cells (HEK293-Hu4-1BB) (human) (UniProt Q07011); test: FACS, HEK293-Hu4-1BB cells
[3] = target: human 4-1BB on the surface of HEK293 cells (HEK293-Hu4-1BB) (human) (UniProt Q07011); test: cell-based or functional assay
[4] = target: human 4-1BB on the surface of HEK293 cells (HEK293-Hu4-1BB) (human) (UniProt Q07011); test: FACS, HEK293-Hu4-1BB cells; remark: listed apart in the source
[5] = target: human 4-1BB on the surface of HEK293 cells (HEK293-Hu4-1BB) (human) (UniProt Q07011); test: cell-based or functional assay; remark: listed apart in the source
[6] = target: human CD40 on the surface of HEK293 cells (HEK293-HuCD40) (human) (UniProt P25942); test: cell-based or functional assay; remark: listed apart in the source
[7] = target: human 4-1BB on the surface of HEK293 cells (HEK293-Hu4-1BB) (human) (UniProt Q07011); test: FACS, HEK293-Hu4-1BB cells; remark: listed apart in the source
[8] = target: human FAP on the surface of CHO-K1 cells (CHO-K1-HuFAP) (human) (UniProt Q12884); test: FACS, CHO-K1-HuFAP cells
[9] = target: human FAP on the surface of CHO-K1 cells (CHO-K1-HuFAP) (human) (UniProt Q12884); test: FACS, CHO-K1-HuFAP cells; remark: listed apart in the source
[10] = target: human CD40 on the surface of HEK293 cells (HEK293-HuCD40) (human) (UniProt P25942); test: FACS, HEK293-HuCD40 cells
[11] = target: human 4-1BB on the surface of HEK293 cells (HEK293-Hu4-1BB) (human) (UniProt Q07011); test: FACS, HEK293-Hu4-1BB cells; remark: listed apart in the source
[12] = target: human CD40 on the surface of HEK293 cells (HEK293-HuCD40) (human) (UniProt P25942); test: FACS, HEK293-HuCD40 cells; remark: listed apart in the source
[13] = target: human FAP on the surface of CHO-K1 cells (CHO-K1-HuFAP) (human) (UniProt Q12884); test: FACS, CHO-K1-HuFAP cells; remark: listed apart in the source

Substance | CD40/NF-κB reporter (HEK-Blue CD40L), uncrosslinked, Fold change in Emax [1] | Maximum fluorescence value [2] | 4-1BB/NF-κB luciferase reporter, CD40-crosslinked, Fold change in Emax [3] | 4-1BB/NF-κB luciferase reporter, FAP-crosslinked, Fold change in Emax [3] | 4-1BB/NF-κB luciferase reporter, uncrosslinked, Fold change in Emax [3] | Maximum fluorescence value [4] | 4-1BB/NF-κB luciferase reporter, CD40-crosslinked, Fold change in Emax [5] | 4-1BB/NF-κB luciferase reporter, FAP-crosslinked, Fold change in Emax [5] | 4-1BB/NF-κB luciferase reporter, uncrosslinked, Fold change in Emax [5] | CD40/NF-κB reporter (HEK-Blue CD40L), 4-1BB-crosslinked, Fold change in Emax [6] | CD40/NF-κB reporter (HEK-Blue CD40L), FAP-crosslinked, Fold change in Emax [6] | CD40/NF-κB reporter (HEK-Blue CD40L), uncrosslinked, Fold change in Emax [6] | Maximum fluorescence value [7] | Maximum fluorescence value [8] | Maximum fluorescence value [9] | Maximum fluorescence value [10] | Maximum fluorescence value [11] | Maximum fluorescence value [12] | Maximum fluorescence value [13]
IgG1 isotype control (antibody) | 0.99 fold | 63 | 1.06 fold | 1.04 fold | 1.05 fold | 67 | 1.05 fold | 1.08 fold | 1.1 fold | 0.99 fold | 0.99 fold | 1 fold | 65 | 64 | 62 | 61 | 69 | 62 | 63
RO7300490 (2302(2+1)PG), FAP/CD40 bispecific antibody molecule, control |  |  |  |  |  |  | 1.06 fold | 1.02 fold | 1.01 fold |  |  |  | 1790 |  |  |  |  |  | 
